B1: UV excision repair protein RAD23 homolog B (Homo sapiens), P54727 (parent)
chain: MQVTLKTLQQQTFKIDIDPEETVKALKEKIESEKGKDAFPVAGQKLIYAGKILNDDTALKEYKIDEKNFVVVMVTKPKAVSTPAPATTQQSAPASTTAVTSSTTTTVAQAPTPVPALAPTSTPASITPASATASSEPAPASAAKQEKPAEKPAETPVATSPTATDSTSGDSSRSNLFEDATSALVTGQSYENMVTEIMSMGYEREQVIAALRASFNNPDRAVEYLLMGIPGDRESQAVVDPPQAASTGAPQSSAVAAAAATTTATTTTTSSGGHPLEFLRNQPQFQQMRQIIQQNPSLLPALLQQIGRENPQLLQQISQHQEHFIQMLNEPVQEAGGQGGGGGGGSGGIAEAGSGHMNYIQVTPQEKEAIERLKALGFPEGLVIQAYFACEKNENLAANFLLQQNFDED

Variants of: B1
Conditions: with ef1a1_human EEF1A1, P68104
Sequence of ef1a1_human EEF1A1, P68104 (P68104 whole entry): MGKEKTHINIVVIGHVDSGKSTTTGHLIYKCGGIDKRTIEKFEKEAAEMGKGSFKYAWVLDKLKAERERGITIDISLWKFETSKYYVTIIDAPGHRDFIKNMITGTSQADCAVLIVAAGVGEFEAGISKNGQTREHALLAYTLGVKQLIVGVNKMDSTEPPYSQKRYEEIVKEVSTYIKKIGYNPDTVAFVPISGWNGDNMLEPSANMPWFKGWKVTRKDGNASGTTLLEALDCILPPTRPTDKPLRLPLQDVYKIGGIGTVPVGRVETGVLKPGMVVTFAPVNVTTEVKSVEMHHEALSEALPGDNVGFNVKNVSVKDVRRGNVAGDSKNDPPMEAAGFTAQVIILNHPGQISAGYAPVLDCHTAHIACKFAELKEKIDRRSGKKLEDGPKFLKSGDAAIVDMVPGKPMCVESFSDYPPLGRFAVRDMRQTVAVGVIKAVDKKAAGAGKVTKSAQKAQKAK

effect of a mutation on the interaction	Variant
disrupting interaction	K6A

Variants of: B1
Conditions: with uba3_human UBA3, Q8TBC4
Sequence of uba3_human UBA3, Q8TBC4 (Q8TBC4 whole entry): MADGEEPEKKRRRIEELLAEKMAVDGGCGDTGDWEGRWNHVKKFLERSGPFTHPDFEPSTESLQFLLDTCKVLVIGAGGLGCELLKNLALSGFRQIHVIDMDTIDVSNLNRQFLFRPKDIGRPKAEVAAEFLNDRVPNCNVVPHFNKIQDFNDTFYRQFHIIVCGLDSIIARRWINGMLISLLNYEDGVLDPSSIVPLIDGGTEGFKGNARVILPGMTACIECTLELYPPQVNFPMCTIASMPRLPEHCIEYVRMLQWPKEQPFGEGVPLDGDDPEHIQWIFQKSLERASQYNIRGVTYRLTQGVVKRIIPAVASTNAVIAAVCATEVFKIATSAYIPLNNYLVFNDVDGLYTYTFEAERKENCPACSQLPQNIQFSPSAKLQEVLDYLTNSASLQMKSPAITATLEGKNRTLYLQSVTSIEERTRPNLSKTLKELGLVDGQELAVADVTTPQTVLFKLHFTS

effect of a mutation on the interaction	Variant
increasing interaction	K6A

From IntAct's records for PubMed 16712842
